Laboratory results from US20110014218A1 (UNIVERSITY OF NORTH CAROLINA AT CHAPEL HILL, published 2011).

B1: chloramphenicol acetyl-transferase protein containing C-terminal V5-epitope and 6x-histidine tags (CAT) (enzyme)
chain: MEKKITGYTTVDISQWHRKEHFEAFQSVAQCTYNQTVQLDITAFLKTVKKNKHKFYPAFIHILARLMNAHPEFRMAMKDGELVIWDSVHPCYTVFHEQTETFSSLWSEYHDDFRQFLHIYSQDVACYGENLAYFPKGFIENMFFVSANPWVSFTSFDLNVANMDNFFAPVFTMGKYYTQGDKVLMPLAIQVHHAVCDGFHVGRMLNELQQYCDEWQGGA
notes: Negative control protein expressed from the same expression vector as S20NS in High Five cells
B2: S20NS (Salp20 protein containing C-terminal V5-epitope and 6x-histidine tags) (other)
chain: SEDGLEQDSKVETTTQNLYERHYRNNSGLCGAQYRNSSHAEAVYNCTLSLLPPKVNETWEGIRHRINKSIPEFVRLMCNFSVVMPEDFYLVYMGSNGNSYSEEDEESTDTDKDSKTGSSAAVEVTEKLILKAEENCTAHITGWTTEAPTTLEPTETQFEAIS
modifications: multiple N- and O-linked glycans (insect cell expressed)
notes: Recombinant protein secreted from stably transfected High Five insect cells and purified; also called I. scapularis salivary protein 20

Key:
[1] = target: T1, properdin (purified human complement component) (human, UniProt P27918 28-469); test: ELISA, coated CAT, properdin in solution, detected with goat α-properdin Ab
T1 construct: Bought purified protein; also called fP

[2] = target: T1, properdin (purified human complement …); test: solid-phase saturation binding ELISA, S20NS coated (10 ng/well), properdin titrated

T1 sequence (P27918 28-469 limits assumed): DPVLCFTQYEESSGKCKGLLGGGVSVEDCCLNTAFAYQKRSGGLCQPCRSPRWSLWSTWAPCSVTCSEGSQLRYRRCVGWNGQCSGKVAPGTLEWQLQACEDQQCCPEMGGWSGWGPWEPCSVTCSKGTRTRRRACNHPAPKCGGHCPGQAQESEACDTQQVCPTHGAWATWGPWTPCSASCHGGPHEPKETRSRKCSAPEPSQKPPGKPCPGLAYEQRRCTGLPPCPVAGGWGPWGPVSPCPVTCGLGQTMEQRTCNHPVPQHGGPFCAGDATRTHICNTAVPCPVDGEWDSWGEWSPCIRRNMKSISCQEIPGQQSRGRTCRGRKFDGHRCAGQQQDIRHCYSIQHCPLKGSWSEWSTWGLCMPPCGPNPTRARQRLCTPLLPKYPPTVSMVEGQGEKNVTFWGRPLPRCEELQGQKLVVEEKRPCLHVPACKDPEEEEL

| Binder | binding result [1] | Kd [2] [nM] |
| --- | --- | --- |
| B1 | no binding |  |
| B2 |  | 0.669 |
